Source: patent US20200317776A1 (published 2020)
Numbering of substitutions follows the chain as printed.

T1: human TREM2 expressed on cells (human, UniProt Q9NZC2 19-230)
T1 construct: BW5147.G.1.4 cells stably expressing human TREM2 together with Dap12, or endogenous TREM2 of primary human myeloid cells; also called huT2 BW; hTREM2 expressing cell line
T1 sequence: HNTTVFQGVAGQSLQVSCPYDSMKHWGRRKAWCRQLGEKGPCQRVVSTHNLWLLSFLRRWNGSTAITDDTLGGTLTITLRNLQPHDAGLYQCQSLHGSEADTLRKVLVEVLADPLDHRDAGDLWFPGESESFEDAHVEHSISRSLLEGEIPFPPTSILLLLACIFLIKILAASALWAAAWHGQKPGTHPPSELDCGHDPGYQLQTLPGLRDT

T2: human TREM2 Fc fusion (entire TREM2 ECD; only one Fc arm fused to TREM2) (human, UniProt Q9NZC2 19-174)
T2 construct: also called huTREM2-Fc; recombinant hTREM2
T2 sequence: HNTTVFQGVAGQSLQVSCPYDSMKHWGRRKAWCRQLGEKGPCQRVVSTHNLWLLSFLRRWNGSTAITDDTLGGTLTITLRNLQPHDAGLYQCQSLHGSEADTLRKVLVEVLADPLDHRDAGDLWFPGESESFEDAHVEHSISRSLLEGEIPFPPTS

T3: cynomolgus monkey TREM2 Fc fusion (entire TREM2 ECD; only one Fc arm fused to TREM2) (cynomolgus monkey, UniProt Q9NZC2 19-174 (human entry))
T3 construct: also called cyno TREM2-Fc
T3 chain: T2 sequence with A10E, W60R, L89F, F125V

B1: AL2p-38 (antibody, V domains shown)
VH: QVQLVQSGAEVKKPGSSVKVSCKASGYAFSSHWMNWVRQAPGQGLEWMGRIYPGGGDTNYAQKFRGRVTITADESTSTAYMELSSLRSEDTAVYYCARLLRNQPGASYAMDYWGQGTLVTVSS
VL: GVVMTQTPLSLSVTPGQPASISCRSSRSLVHSNRYTYLHWYLQKPGQSPQLLIYKVSNRRSGVPDRFSGSGSGTDFTLKISRVEAEDVGVYYCSQSTRVPYTFGQGTKLEIK
notes: Fab and IgG formats under one id
B2: AL2p-54 (antibody, V domains shown)
VH: B1 VH with G55E, R65H, Q103K, A106E
VL: B1 VL with G1D, S25T, R27Q, R34Q, R60V
notes: as for B1
B3: AL2p-52 (antibody, V domains shown)
VH: B1 VH with Q1E, G55E, R65H, A106E
VL: B1 VL with G1D, S25T, R27Q, R34A, R60V
notes: as for B1
B4: AL2p-46 (antibody, V domains shown)
VH: B1 VH with H32D, G55E, Q62R, R65Q, Q103K, A106E
VL: B1 VL with G1D, S25T, R27Q, R34Q, R60V
notes: as for B1
B5: AL2p-51 (antibody, V domains shown)
VH: B1 VH with G55E, R65H, A106E
VL: B1 VL with G1D, S25T, R27Q, R34Q, R60V
notes: as for B1
B6: AL2p-42 (antibody, V domains shown)
VH: B1 VH with G55E
VL: B1 VL with S25T
notes: as for B1
B7: AL2p-44 (antibody, IgG1, V domains shown)
VH: B1 VH with Q62R
VL: B1 VL with S25T
notes: as for B1
B8: AL2p-56 (antibody, V domains shown)
VH: B1 VH with Q1E, G55E, R65H, Q103K, A106E
VL: B1 VL with G1D, S25T, R27Q, R34A, R60V
notes: same VH/VL entries as AL2p-55; Fab and IgG formats under one id
B9: AL2p-50 (antibody, V domains shown)
VH: B1 VH with G55E, R65H, A106E
VL: B1 VL with G1D, S25T, R27Q, R34A, R60V
notes: as for B1
B10: AL2p-49 (antibody, V domains shown)
VH: B1 VH with Q1E, H32D, G55E, Q62R, R65H, Q103K, A106E
VL: B1 VL with G1D, S25T, R27Q, R34Q, R60V
notes: as for B1
B11: AL2p-40 (antibody, IgG1, V domains shown)
VH: B1 VH
VL: B1 VL with S25T
notes: as for B1
B12: AL2p-39 (antibody, V domains shown)
VH: B1 VH
VL: B1 VL with R34Q
notes: as for B1
B13: AL2p-48 (antibody, V domains shown)
VH: B1 VH with H32D, G55E, Q62R, R65H, Q103K, A106E
VL: B1 VL with G1D, S25T, R27Q, R34Q, R60V
notes: as for B1
B14: AL2p-53 (antibody, V domains shown)
VH: B1 VH with Q1E, G55E, R65H, A106E
VL: B1 VL with G1D, S25T, R27Q, R34Q, R60V
notes: as for B1
B15: AL2p-41 (antibody, IgG1, V domains shown)
VH: B1 VH with G55E
VL: B1 VL with R34Q
notes: as for B1
B16: AL2p-55 (antibody, V domains shown)
VH: B1 VH with Q1E, G55E, R65H, Q103K, A106E
VL: B1 VL with G1D, S25T, R27Q, R34A, R60V
notes: same VH/VL entries as AL2p-56; Fab and IgG formats under one id
B17: AL2p-45 (antibody, V domains shown)
VH: B1 VH with H32D, G55E, Q62R, R65Q, Q103K, A106E
VL: B1 VL with G1D, S25T, R27Q, R34A, R60V
notes: as for B1

target: T1, human TREM2 expressed on cells; assay: FACS, human DCs
Excerpt: (§1) To examine cell binding of affinity matured anti-TREM2 antibodies, both primary human monocyte derived dendritic cells and recombinant, human TREM2 expressing cells were utilized. For the latter, BW5147.G.1.4 (ATCC® TIB48™) and HEK293T cells stably expressing human TREM2 together with Dap12 using viral infection were established. For primary human monocyte derived dendritic cells, human monocytes were isolated from whole blood using RosetteSep Human monocyte enrichment cocktail (Stemcell technologies) and Ficoll centrifugation per manufacturer protocols. After lysing red blood cells with ACK lysing buffer, monocytes were resuspended in complete media (RPMI, 10% FBS, Pen/Strep, L-glutamine, HEPES, non-essential amino acid, Sodium pyruvate) with 100 ng/ml human GM-CSF (hu-GMCSF) and, human IL-4 (hu-IL-4) to differentiate dendritic cells for 6 days.
(§2) Cells were harvested by trypsinization (Hek293T) or scraping (BW and dendritic cells), washed in PBS, counted and plated on 96-well U bottom plates at […] cells/well. The plates were spun at 1,400 rpm for 3 minutes and primary TREM2 or control antibodies were added in FACS buffer (PBS+2% FBS) and incubated on ice for one hour. Cells were subsequently centrifuged as before and washed thrice with FACS buffer. Cells were then incubated with anti-human PE conjugated secondary antibody (BD Biosciences) in FACS buffer for 30 minutes on ice. Cells were again washed thrice with FACS buffer and analyzed on a BD FACS Canto or an Intellicyt Flow Cytometer. Binding was measured as mean fluorescence intensity in the APC channel.

| Binder | MFI [MFI] |
| --- | --- |
| B1 | 499 |
| B2 | 235 |
| B3 | 224 |
| B4 | 187 |
| B5 | 195 |
| B6 | 662 |
| B7 | 1470 |
| B8 | 155 |
| B9 | 235 |
| B10 | 413 |
| B11 | 547 |
| B12 | 590 |
| B13 | 408 |
| B14 | 159 |
| B15 | 534 |
| B16 | 141 |
| B17 | 318 |

target: T2, human TREM2 Fc fusion (entire TREM2 …); assay: BLI, Fab, monovalent

| Binder | Kd [nM] |
| --- | --- |
| B1 | 0.623 |
| B2 | 13.9 |
| B3 | 27 |
| B4 | 13 |
| B5 | 21.2 |
| B6 | 0.829 |
| B7 | 0.41 |
| B8 | 18.7 |
| B9 | 23.9 |
| B10 | 11.6 |
| B11 | 0.602 |
| B12 | 0.631 |
| B13 | 11.2 |
| B14 | 21.1 |
| B15 | 0.724 |
| B16 | 18.5 |
| B17 | 17.8 |

Target: T3, cynomolgus monkey TREM2 Fc fusion …
Assay: BLI, Fab, monovalent

| Binder | Kd [nM] |
| --- | --- |
| B1 | 0.37 |
| B2 | 16.8 |
| B3 | 28 |
| B4 | 16.1 |
| B5 | 27.2 |
| B6 | 0.312 |
| B7 | 0.271 |
| B8 | 18.8 |
| B9 | 36.1 |
| B10 | 14.1 |
| B11 | 0.37 |
| B12 | 0.346 |
| B13 | 14.9 |
| B14 | 31.3 |
| B15 | 0.352 |
| B16 | 22.6 |
| B17 | 20.9 |

target: T1, human TREM2 expressed on cells; assay: FACS, hTREM2 BW cells
Excerpt: as §1, §2

| Binder | Kd [nM] |
| --- | --- |
| B1 | 4.79 |
| B2 | 2.3 |
| B3 | 2.42 |
| B4 | 1.33 |
| B5 | 1.92 |
| B6 | 1.91 |
| B7 | 4.18 |
| B8 | 2.01 |
| B9 | 1.8 |
| B10 | 1.15 |
| B11 | 2.27 |
| B12 | 1.53 |
| B13 | 1.4 |
| B14 | 1.72 |
| B15 | 1.31 |
| B16 | 2.05 |
| B17 | 1.54 |

target: T1, human TREM2 expressed on cells; assay: cell-based or functional assay

| Binder | DC viability (AUC) | Mac viability (AUC) |
| --- | --- | --- |
| B1 | 786000 | 39000 |
| B2 | 570000 | -7640 |
| B3 | 283000 | -13500 |
| B4 | 597000 | 6040 |
| B5 | 259000 | -11200 |
| B6 | 781000 | 57900 |
| B7 | 750000 | 74700 |
| B8 | 643000 | -7620 |
| B9 | 286000 | -10400 |
| B10 | 754000 | 15100 |
| B11 | 825000 | 63200 |
| B12 | 851000 | 66900 |
| B13 | 770000 | 23600 |
| B14 | 234000 | -10200 |
| B15 | 860000 | 80700 |
| B16 | 631000 | -5280 |
| B17 | 543000 | 3680 |

target: human TREM2/DAP12 fusion protein (human, UniProt O43914 41-113, limits assumed); assay: cell-based or functional assay
Sequence (O43914 other isoform, or with tags, fused parts or gaps limits assumed): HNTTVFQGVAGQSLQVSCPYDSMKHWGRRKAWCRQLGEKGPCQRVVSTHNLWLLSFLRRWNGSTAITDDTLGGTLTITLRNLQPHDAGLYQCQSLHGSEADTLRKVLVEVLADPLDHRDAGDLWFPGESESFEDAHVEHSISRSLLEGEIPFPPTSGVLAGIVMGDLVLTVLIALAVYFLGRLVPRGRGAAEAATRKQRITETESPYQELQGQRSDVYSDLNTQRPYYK

| Binder | BW Luc assay plate bound 7.3 nM IgG, FOC [FOC] | BW Luc assay soluble 7.3 nM IgG, FOC [FOC] |
| --- | --- | --- |
| B1 | 4.47 | 4.98 |
| B2 | 1.53 | 2.17 |
| B3 | 1.3 | 1.75 |
| B4 | 1.64 | 2.98 |
| B5 | 1.22 | 2.3 |
| B6 | 6.52 | 5.95 |
| B7 | 7.17 | 11.5 |
| B8 | 1.51 | 2.02 |
| B9 | 1.19 | 2.07 |
| B10 | 3.12 | 3.28 |
| B11 | 8.49 | 9.92 |
| B12 | 8.12 | 3.81 |
| B13 | 3.25 | 3.65 |
| B14 | 1.45 | 2.32 |
| B15 | 7.61 | 2.92 |
| B16 | 1.49 | 2.08 |
| B17 | 2.29 | 2.38 |
